Data reported in publication PMC12650658, “Evaluating the Topological Features of Monomeric and Trimeric TRAF2-C: A Multi-Disciplinary Approach” (Biomolecules, 2025).

Target: the molecule itself
Experiment: dynamic light scattering; TRAF2-C ≈ 4 µM (in monomers), 20 °C, filtered 0.22 µm; bimodal Gaussian fit of the size distribution (monomers, trimers)

B1: C-terminal domain of human TRAF2 (TRAF2-C, residues 310-501) (domain or fragment, UniProt Q12933 310-501, looked up)
chain: DQDKIEALSSKVQQLERSIGLKDLAMADLEQKVLEMEASTYDGVFIWKISDFARKRQEAVAGRIPAIFSPAFYTSRYGYKMCLRIYLNGDGTGRGTHLSLFFVVMKGPNDALLRWPFNQKVTLMLLDQNNREHVIDAFRPDVTSSSFQRPVNDMNIASGCPLFCPVSKMEAKNSYVRDDAIFIKAIVDLTGL
notes: TNF receptor-associated factor 2 (TRAF2), human, C-terminal domain, residues 310-501; Unlabelled protein used for DLS, CD and SANS; Only a pET-based vector is named; the tag is inferred from the Ni-NTA step; also called TRAF2 C-terminal domain; source: E. coli BL21 (DE3), purified (Ni-NTA, Superdex 75 SEC)
With B1 the “stoichiometry N” value was 3.
